Laboratory results taken from patent US20150337019A1 (MANUKAMED HOLDINGS LIMITED PARTNERSHIP, published 2015).

The binders below were run against T1, Cathepsin B from bovine spleen (bovine, UniProt P07688 80-332) (assay: cell-based or functional assay).

Row | Binder | Cathepsin B inhibition test, 2 mM peptide
1 | Ac-HNIR-OH [Ac-HNIR-OH] | 172
2 | H-HNIR-OH [H-HNIR-OH] | 152
3 | Ac-Phe-Asp-Arg-OH [Ac-FDR-OH] | 85.6
4 | H-Met-Gln-Lys-OH [H-MQK-OH] | 127
5 | Ac-YINR-OH [Ac-YINR-OH] | 93.1
6 | Ac-Phe-Thr-Lys-OH [Ac-FTK-OH] | 149
7 | H-IFVTMLR-OH [H-IFVTMLR-OH] | 80.5
8 | Ac-IFVTMLR-OH [Ac-IFVTMLR-OH] | 88.3
9 | H-Phe-Thr-Lys-OH [H-FTK-OH] | 148
10 | H-Phe-Asp-Arg-OH [H-FDR-OH] | 175

Further lines, results first:

Row | Cathepsin B inhibition test, 2 mM peptide | Binder
11 | 71.2 | H-Phe-Asp-Arg-OH (also: MGO-modified, site not given here) [MGO-modified H-FDR-OH]
12 | 142 | H-YINR-OH [H-YINR-OH]
13 | 76.6 | H-Phe-Thr-Lys-OH (also: MGO-modified, site not given here) [MGO-modified H-FTK-OH]
14 | 105 | Ac-Phe-Thr-Lys-OH (also: MGO-modified, site not given here) [MGO-modified Ac-FTK-OH]
15 | 44.8 | Ac-Phe-Asp-Arg-OH (also: MGO-modified, site not given here) [MGO-modified Ac-FDR-OH]
16 | 107 | Ac-HNIR-OH (also: MGO-modified, site not given here) [MGO-modified Ac-HNIR-OH]
17 | 79.2 | H-YINR-OH (also: MGO-modified, site not given here) [MGO-modified H-YINR-OH]
18 | 78.7 | H-IFVTMLR-OH (also: MGO-modified, site not given here) [MGO-modified H-IFVTMLR-OH]
19 | 92.6 | Ac-IFVTMLR-OH (also: MGO-modified, site not given here) [MGO-modified Ac-IFVTMLR-OH]
20 | 103 | H-HNIR-OH (also: MGO-modified, site not given here) [MGO-modified H-HNIR-OH]
21 | 99 | Ac-YINR-OH (also: MGO-modified, site not given here) [MGO-modified Ac-YINR-OH]

Target: T1, Cathepsin B from bovine spleen
Assay: cell-based or functional assay
Remark: another data set of the same source

Row | Binder | Cathepsin B inhibition test, 2 mM peptide
22 | Ac-Met-Asp-Arg-OH [Ac-MDR-OH] | 107
23 | Ac-Thr-Asp-Lys-OH [Ac-TDK-OH] | 101
24 | Ac-Thr-Asn-Arg-OH [Ac-TNR-OH] | 96.5
25 | Ac-Met-Asp-Lys-OH [Ac-MDK-OH] | 110
26 | Ac-Val-Asn-Arg-OH [Ac-VNR-OH] | 99.8
27 | Ac-Leu-Gln-Lys-OH [Ac-LQK-OH] | 102
28 | Ac-Ile-Asp-Arg-OH [Ac-IDR-OH] | 93.5
29 | H-Met-His-Arg-OH [H-MHR-OH] | 96.8
30 | H-Ile-Asp-Arg-OH [H-IDR-OH] | 98
31 | H-Met-Asp-Lys-OH [H-MDK-OH] | 104
32 | H-Leu-Gln-Lys-OH [H-LQK-OH] | 102
33 | Ac-Met-Asn-Arg-OH [Ac-MNR-OH] | 101
34 | H-Thr-Asn-Arg-OH [H-TNR-OH] | 103
35 | H-Met-Asp-Arg-OH [H-MDR-OH] | 102
36 | Ac-Met-His-Arg-OH [Ac-MHR-OH] | 101
37 | H-Thr-Asp-Lys-OH [H-TDK-OH] | 103

The next lines start with the values.

Row | Cathepsin B inhibition test, 2 mM peptide | Binder
38 | 88.6 | Ac-Met-Asp-Arg-OH (also: MGO-modified, site not given here) [MGO-modified Ac-MDR-OH]
39 | 86.9 | Ac-Met-Asn-Arg-OH (also: MGO-modified, site not given here) [MGO-modified Ac-MNR-OH]
40 | 68.5 | Ac-Val-Asn-Arg-OH (also: MGO-modified, site not given here) [MGO-modified Ac-VNR-OH]
41 | 81.8 | Ac-Ile-Asp-Arg-OH (also: MGO-modified, site not given here) [MGO-modified Ac-IDR-OH]
42 | 87.5 | H-Thr-Asp-Lys-OH (also: MGO-modified, site not given here) [MGO-modified H-TDK-OH]
43 | 80.7 | H-Met-His-Arg-OH (also: MGO-modified, site not given here) [MGO-modified H-MHR-OH]
44 | 74.5 | H-Met-Asp-Arg-OH (also: MGO-modified, site not given here) [MGO-modified H-MDR-OH]
45 | 90.1 | Ac-Met-His-Arg-OH (also: MGO-modified, site not given here) [MGO-modified Ac-MHR-OH]
46 | 97.8 | H-Val-Asn-Arg-OH [H-VNR-OH]
47 | 82.6 | H-Val-Asn-Arg-OH (also: MGO-modified, site not given here) [MGO-modified H-VNR-OH]
48 | 70.6 | H-Met-Asp-Lys-OH (also: MGO-modified, site not given here) [MGO-modified H-MDK-OH]
49 | 85.6 | H-Ile-Asp-Arg-OH (also: MGO-modified, site not given here) [MGO-modified H-IDR-OH]
50 | 92.8 | Ac-Thr-Asp-Lys-OH (also: MGO-modified, site not given here) [MGO-modified Ac-TDK-OH]
51 | 78.6 | H-Met-Asn-Arg-OH (also: MGO-modified, site not given here) [MGO-modified H-MNR-OH]
52 | 90.2 | Ac-Leu-Gln-Lys-OH (also: MGO-modified, site not given here) [MGO-modified Ac-LQK-OH]
53 | 91.9 | H-Thr-Asn-Arg-OH (also: MGO-modified, site not given here) [MGO-modified H-TNR-OH]
54 | 91.7 | Ac-Thr-Asn-Arg-OH (also: MGO-modified, site not given here) [MGO-modified Ac-TNR-OH]
55 | 95.3 | H-Leu-Gln-Lys-OH (also: MGO-modified, site not given here) [MGO-modified H-LQK-OH]
56 | 99.4 | Ac-Met-Asp-Lys-OH (also: MGO-modified, site not given here) [MGO-modified Ac-MDK-OH]
